Test [1] has as its target T1, Biotinylated human ICOS protein (human, UniProt Q9Y6W8 21-140, limits assumed, biotinylated).
T1 sequence: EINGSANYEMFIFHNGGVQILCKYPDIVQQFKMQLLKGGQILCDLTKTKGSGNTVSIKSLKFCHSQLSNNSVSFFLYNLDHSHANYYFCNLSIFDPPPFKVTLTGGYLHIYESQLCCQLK
Nature of the test: avidity SPR (ProteOn), biotinylated hICOS on NLC chip; calculated on-rate. The protocol:
Biotinylated human ICOS protein diluted at 7.5 μg/mL in running buffer (1×HBS-EP+Buffer Technova, cat. No. H8022) was captured on a NLC sensor chip (Bio-Rad, cat No 1765021). The surface was then blocked using biocytin (Sigma Aldrich, cat No B1758) at 1 mg/mL.
The assay was carried out at 25° C.
The buffer injection (i.e. 0 nM) was used to double reference the sensorgrams. The analysis was carried out using the equilibrium model inherent to the ProteOn's analysis software for each mAb² construct.

In test [2] the target is T2, mouse ICOS expressed on CHO cells (mouse, UniProt Q9WVS0 21-141).
T2 construct: the cell-expressed form may differ; also called mICOS; CHO mouse ICOS
T2 sequence: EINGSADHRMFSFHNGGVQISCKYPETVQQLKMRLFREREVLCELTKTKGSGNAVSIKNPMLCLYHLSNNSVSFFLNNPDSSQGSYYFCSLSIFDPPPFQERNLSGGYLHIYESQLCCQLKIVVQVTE
Nature of the test: flow cytometry, CHO mouse ICOS cells, anti-human IgG AF647, N=3. The protocol:
(§1) CHO-S cells transfected with either human ICOS or mouse ICOS were resuspended in FACS buffer (PBS+1% w/v BSA+0.1% w/v sodium azide) and transferred to a 96-well V-bottom plate (Greiner) at a density of 1×10⁵ cells per well. mAb and mAb² were titrated in FACS buffer, 1 in 3 dilution across 11 points from a starting working concentration of 400 nM. Plates were centrifuged at 300×g for 3 minutes, supernatant discarded and 50 μL mAb or mAb² solution were added to cells and incubated at 4° C. for 1 hour. Cells were washed with 150 μL of PBS and centrifuged at 300×g for 3 minutes, supernatant was discarded and cell pellet resuspended in 150 μL PBS added. This wash step was repeated twice. […] Cells were incubated for 1 hour at 4° C. in the dark. Cells were washed with 150 μL of PBS and centrifuged at 300 g for 3 minutes, supernatant was discarded and cell pellet resuspended in 150 μL PBS added. This wash step was repeated twice. Cells were fixed with 25 μL 4% v/v paraformaldehyde, incubated for 20 minutes at 4° C., cells were pelleted by centrifugation at 300×g and the supernatant discarded. Cells were washed with 150 μL of PBS and centrifuged at 300 g for 3 minutes, supernatant was discarded and cell pellet resuspended in 150 μL PBS added. This wash step was repeated. Pelleted cells were resuspended in 110 μL 1×PBS.

Test [3] concerns the target T2, mouse ICOS expressed on CHO cells. Nature of the test: flow cytometry, CHO mouse ICOS cells, anti-human IgG AF647, N=2. The protocol: as §1
(In general: A flow cytometer gives signals particle by particle.)

Test [4] addresses T3, human ICOS-mFc (Chimerigen) (human, UniProt Q9Y6W8 21-140, limits assumed).
T3 construct: Bought fusion; also called hICOS; recombinant human ICOS protein; not shown: mouse Fc
T3 sequence: T1 sequence
Put plainly: DELFIA ELISA, coated human ICOS-mFc, N=3. The protocol: (§2) Recombinant ICOS proteins, human ICOS-mFc or mouse ICOS-mFc (Chimerigen) were diluted in 1×PBS and added to Black Hi-bind plates (Griener) at 1 μg/ml, 50 μl/well. Recombinant PD-L1 proteins, human PD-L1-Flag-His or mouse-His were diluted in 1×PBS and added to Black Hi-bind plates (Griener) at 4 μg/ml, 50 μl/well. The plates were left overnight at 4° C. The next day plates were washed 3× with 300 μl/well of 1×PBS+0.1% Tween and blocked with 200 μl/well of 1×PBS+1% BSA blocking buffer for 1 hr at RT on a plate shaker. Plates were washed 3× with 300 μl/well of 1×PBS+0.1% Tween.
(§3) However, human-PD-L1 mAb² antibodies were diluted in 1×PBS+0.1% BSA buffer and diluted 1 in 2 from a starting working concentration of 0.066 μM over an 11 point titration. Titrated antibodies were added to the plates, 50 μl/well and left to incubate for 1 hr at R.T on a plate shaker. Plates were washed 3× with 300 μl/well of 1×PBS+0.1% Tween.
(§4) DELFIA® Eu-labelled Anti-human IgG(Perkin-Elmer) was diluted 1:500 in DELFIA Assay buffer (Perkin-Elmer) and added to the assay plate (50 μl/well), left to incubate for 1 hr at RT on a plate shaker. […] After incubation, assay was read on Envision plate reader (Perkin Elmer), Time-resolved fluorescence (TRF) was measured at 615 nm.

Test [5] deals with T2, mouse ICOS expressed on CHO cells. Put plainly: flow cytometry, CHO mouse ICOS cells, anti-human IgG AF647, N=1. The protocol:
as §1

The target of test [6] is T3, human ICOS-mFc (Chimerigen). Nature of the test: HTRF neutralisation of human B7-H2 binding to human ICOS-mFc, n3. Here is the method: (§5) 5 μl of human ICOS-mFc (Chimerigen) at 20 nM (5 nM final) or 5 μl of mouse ICOS-mFc (Chimerigen) at 4 nM (1 nM final) were added to relevant assay wells. Plate was incubated for 1 hour (hr) at room temperature (RT).
(§6) After incubation, assay was read on Envision plate reader (Perkin Elmer) using a standard HTRF protocol. 620 nm and 665 nm channel values were exported to Microsoft Excel and % Delta-F and % Neutralisation calculations performed. Titration curves and IC50 values [M] were plotted using Graphpad (Prism). IC50 values were calculated by first transforming the data using equation X=Log(X). The transformed data was then fitted using nonlinear regression, using fitting algorithm, log (inhibitor) vs. response-variable slope (four parameters).
In general terms: In TR-FRET formats the signal depends on donor and acceptor labels being close together.

For test [7] the target is unchanged. Nature of the test: HTRF neutralisation of human B7-H2 binding to human ICOS-mFc, n2. The protocol: as §5, §6
For test [8], the target named is T4, mouse ICOS-mFc (Chimerigen) (mouse, UniProt Q9WVS0 21-141, limits assumed).
T4 construct: Bought fusion; also called mICOS; recombinant mouse ICOS protein; not shown: mouse Fc
T4 sequence: T2 sequence
Nature of the test: HTRF neutralisation of mouse B7-H2 binding to mouse ICOS-mFc, n1. The protocol:
as §5, §6

In test [9] the target is T4, mouse ICOS-mFc (Chimerigen). Put plainly: DELFIA ELISA, coated mouse ICOS-mFc, N=1. The protocol: as §2, §3, §4
A general note: An ELISA detects its analyte on a solid surface through an enzyme-linked reagent.

These results are taken from patent US20260049143A1 (KYMAB, published 2026).

B1: STIM001_457 (bispecific antibody, V domains shown, not shown: a dimerising Fc or GST)
VH: QVQVVQSGAEVKKPGASVKVSCKASGYTFSTFGITWVRQAPGQGLEWMGWISAYNGDTNYAQNLQGRVIMTTDTSTSTAYMELRSLRSDDTAVYYCARSSGHYYYYGMDVWGQGTTVTVSS
VL: DIVMTQSPLSLPVTPGEPASISCRSSQSLLHSNEYNYLDWYLQKPGQSPQLLIFLGSNRASGVPDRFSGSGSGTDFTLKITRVEAEDVGIYYCMQSLQTPLTFGGGTKVEIK
notes: mAb^2 IgG1; also called STIM001_457 mAb^2
As a reminder, the kon is the rate constant with which the complex forms. A word on the EC50: it is the concentration needed to bring the measured effect to its halfway point. Low values mean greater potency, high ones weaker potency. What is called IC50 is the concentration that gives 50% inhibition. For the molecule B1, the kon in test [1] is 37600 M⁻¹ s⁻¹. The EC50 came to 6.97 nM in test [2]; 3.53 nM in test [3]; 9.17 nM in test [4]; 5.14 nM in [5]; 23.6 nM in test [9]. The results for the IC50 in [6], in test [7] and in test [8] were 2.38 nM, 1.32 nM and 3.39 nM, respectively.

B2: STIM003_457 (bispecific antibody, V domains shown, not shown: a dimerising Fc or GST)
VH: EVQLVESGGGVVRPGGSLRLSCVASGVTFDDYGMSWVRQAPGKGLEWVSGINWNGGDTDYSDSVKGRFTISRDNAKNSLYLQMNSLRAEDTALYYCARDFYGSGSYYHVPFDYWGQGILVTVSS
VL: EIVLTQSPGTLSLSPGERATLSCRASQSVSRSYLAWYQQKRGQAPRLLIYGASSRATGIPDRFSGDGSGTDFTLSISRLEPEDFAVYYCHQYDMSPFTFGPGTKVDIK
notes: mAb^2 IgG1; also called ST1M003_457; STIM003_457 mAb^2
In the case of B2, in test [1], the kon is 275000 M⁻¹ s⁻¹. The EC50 in test [2] came out at 11.9 nM; in test [3], 11 nM; in [4], 0.401 nM; in [5] it was 8.92 nM; in test [9], 0.327 nM. Further, the IC50 was 0.77 nM in test [6], 0.47 nM in [7] and 0.087 nM in [8].
